This is an account of results in paper PMC9519043.

In series [1] the test system is HRSV virus particle (Human respiratory syncytial virus strain A2 (ATCC VR-1540)). Put plainly: microfluidic affinity capture, RT-qPCR. As to conditions: SPR (BIAcore T200, […], pH not stated. (In general: Quantitative PCR measures a nucleic acid by following its amplification.)
Series [2] addresses SARS-CoV-2 virus particle (S protein), native, patient saliva (SARS-CoV-2 (clinical isolates)) (UniProt P0DTC2). As to the kind of experiment: microfluidic affinity capture, RT-qPCR. Particulars: 5' amino C12 linker and TEG spacer 9; 3' inverted dT; SPR (BIAcore T200, […], pH not stated; chip capture from buffer or saliva at 20 ul/min.

Consider “TAGGGAAGAGAAGGACATATGATAGTGCGGTGAGCCGTCGGACATACAAATACTTGACTAGTACATGACCACTTGA [HRSV aptamer (Percze et al.), chip form]”, for which, in series [1], the binding signal is 74.2 % recovery.
“CAGCACCGACCTTGTGCTTTGGGAGTGCTGGTCCAAGGGCGTTAATGGACA [51-nt SARS-CoV-2 aptamer, chip form]” gave a binding signal in series [2] of 94.7 % recovery.
